Assay results reported in article PMC4462998.

Target: FtsQ (Escherichia coli), P06136
Test: not stated; unpublished results (Luirink and den Blaauwen); method not given
Settings: remark: other sources report otherwise

Chain of FtsQ (Escherichia coli), P06136 (P06136 whole entry): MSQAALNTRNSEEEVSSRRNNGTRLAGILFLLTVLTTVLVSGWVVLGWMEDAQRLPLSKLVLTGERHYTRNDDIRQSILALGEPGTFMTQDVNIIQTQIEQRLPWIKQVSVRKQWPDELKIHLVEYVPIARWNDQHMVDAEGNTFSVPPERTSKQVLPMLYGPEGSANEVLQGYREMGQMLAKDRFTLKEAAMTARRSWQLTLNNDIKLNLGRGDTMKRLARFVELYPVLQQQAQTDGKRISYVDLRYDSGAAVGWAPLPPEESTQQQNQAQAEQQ

B1: FtsL, P0AEN4 1-121 (natural protein)
chain: MISRVTEALSKVKGSMGSHERHALPGVIGDDLLRFGKLPLCLFICIILTAVTVVTTAHHTRLLTAQREQLVLERDALDIEWRNLILEENALGDHSRVERIATEKLQMQHVDPSQENIVVQK
  stoichiometry N: 1
